B1: purified CHO-derived recombinant human IL-7 (highly glycosylated / hyperglycosylated hIL-7) (ligand)
chain: DCDIEGKDGKQYESVLMVSIDQLLDSMKEIGSNCLNNEFNFFKRHICDANKEGMFLFRAARKLRQFLKMNSTGDFDLHLLKVSEGTTILLNCTGQVKGRKPAALGEAQPTKSLEENKSLKEQKKLNDLCFLKRLLQEIKTCWNKILMGTKEH
modifications: complex N-linked oligosaccharides at Asn 70, 91 and 116; O-glycan at Thr 110; batch is a mixture of fully and partially glycosylated proteins
notes: also called CHO-derived hIL-7; purified IL-7 protein

What all share (assay): lectin-coated plate ELISA; bound IL-7 shown by biotinylated anti-hIL-7 antibody and streptavidin-peroxidase
(In general: In an ELISA, binding on a coated surface is turned into a signal by an enzyme label.)

Assay [1] has as its target T1, PHA.L, lectin from Phaseolus vulgaris (Phaseolus vulgaris, UniProt P05087 21-272).
T1 construct: Lectin coated on the plate
T1 sequence (looked up): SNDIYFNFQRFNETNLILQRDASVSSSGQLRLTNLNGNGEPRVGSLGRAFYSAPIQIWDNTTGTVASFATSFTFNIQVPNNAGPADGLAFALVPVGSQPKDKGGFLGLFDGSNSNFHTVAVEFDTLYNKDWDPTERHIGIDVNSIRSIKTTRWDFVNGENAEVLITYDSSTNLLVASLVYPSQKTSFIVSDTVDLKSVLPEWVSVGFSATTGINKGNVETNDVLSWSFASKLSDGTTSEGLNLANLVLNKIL
Here is the method:
(§1) An array of lectins having affinity for N- and O-glycan structures was selected and used to coat 96 well microplates. Identical amounts of recombinant purified IL-7 preparations were incubated into lectin coated microplate wells. During this step, according to the affinity of a given lectin to the glycan decoration of IL-7, different amount of IL-7 were kept bound to the lectin. Revelation was conducted by incubating an IL-7 specific antibody coupled to Biotin.
(§2) Eight different lectins were used to characterize the IL-7 purified samples. Each lectin specifically recognizes sugar moieties.

Assay [2] concerns the target T2, UEA.I, lectin from Ulex europeus (Ulex europeus, UniProt P22972 1-243).
T2 construct: Lectin coated on the plate
T2 sequence (looked up): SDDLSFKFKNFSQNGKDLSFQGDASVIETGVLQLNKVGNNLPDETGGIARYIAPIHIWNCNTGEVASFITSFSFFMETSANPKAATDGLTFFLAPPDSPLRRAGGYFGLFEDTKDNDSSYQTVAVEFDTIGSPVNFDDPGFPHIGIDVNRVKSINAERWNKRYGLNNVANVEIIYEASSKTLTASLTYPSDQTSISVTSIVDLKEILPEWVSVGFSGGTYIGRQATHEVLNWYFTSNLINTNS
Here is the method: as §1, §2

In assay [3] the target is B1. Here is the method: as §1, §2

In the case of B1, the binding result in assay [1] and in assay [2] was “binds” in each case.

B2: ABA, lectin from Agaricus bisporus (other, UniProt Q00022 2-143, looked up)
chain: TYTISIRVYQTTPKGFFRPVERTNWKYANGGTWDEVRGEYVLTMGGSGTSGSLRFVSSDTDESFVATFGVHNYKRWCDIVTNLTNEQTALVINQEYYGVPIRDQARENQLTSYNVANAKGRRFAIEYTVTEGDNLKANLIIG
notes: Lectin coated on the plate
As to B2, the binding result in assay [3] was “binds”.

Source of the values: patent publication US20080206190A1 (CYTHERIS, published 2008).
